Molecular target: T1, human fibrin (clot formed from human fibrinogen, Sigma, with human thrombin), P02671
T1 chain 1: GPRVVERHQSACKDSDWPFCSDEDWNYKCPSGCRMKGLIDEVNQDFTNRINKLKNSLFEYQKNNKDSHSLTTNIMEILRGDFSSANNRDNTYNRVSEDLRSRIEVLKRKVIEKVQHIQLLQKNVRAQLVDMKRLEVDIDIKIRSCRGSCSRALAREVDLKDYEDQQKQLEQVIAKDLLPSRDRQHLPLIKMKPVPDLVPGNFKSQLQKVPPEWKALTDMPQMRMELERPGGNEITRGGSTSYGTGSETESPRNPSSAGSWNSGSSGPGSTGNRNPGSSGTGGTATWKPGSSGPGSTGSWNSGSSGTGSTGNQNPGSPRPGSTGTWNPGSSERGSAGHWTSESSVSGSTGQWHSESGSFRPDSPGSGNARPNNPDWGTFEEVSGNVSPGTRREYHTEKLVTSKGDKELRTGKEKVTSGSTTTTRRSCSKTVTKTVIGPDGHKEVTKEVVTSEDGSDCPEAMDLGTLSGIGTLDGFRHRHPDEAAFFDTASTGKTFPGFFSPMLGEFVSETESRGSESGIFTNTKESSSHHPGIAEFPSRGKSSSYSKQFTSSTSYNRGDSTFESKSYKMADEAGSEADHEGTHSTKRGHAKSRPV
T1 chain 2: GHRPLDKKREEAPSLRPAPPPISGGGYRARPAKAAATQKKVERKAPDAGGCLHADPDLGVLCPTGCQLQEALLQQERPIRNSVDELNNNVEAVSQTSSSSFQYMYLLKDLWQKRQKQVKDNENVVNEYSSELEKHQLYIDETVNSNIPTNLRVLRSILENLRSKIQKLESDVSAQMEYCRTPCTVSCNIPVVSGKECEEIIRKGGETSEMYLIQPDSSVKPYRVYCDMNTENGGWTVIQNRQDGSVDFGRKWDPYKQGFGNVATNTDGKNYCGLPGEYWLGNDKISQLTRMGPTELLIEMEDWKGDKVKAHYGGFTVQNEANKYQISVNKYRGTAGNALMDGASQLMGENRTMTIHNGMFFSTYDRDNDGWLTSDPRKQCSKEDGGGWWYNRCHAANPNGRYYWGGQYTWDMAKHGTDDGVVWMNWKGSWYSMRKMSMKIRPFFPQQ
T1 chain 3: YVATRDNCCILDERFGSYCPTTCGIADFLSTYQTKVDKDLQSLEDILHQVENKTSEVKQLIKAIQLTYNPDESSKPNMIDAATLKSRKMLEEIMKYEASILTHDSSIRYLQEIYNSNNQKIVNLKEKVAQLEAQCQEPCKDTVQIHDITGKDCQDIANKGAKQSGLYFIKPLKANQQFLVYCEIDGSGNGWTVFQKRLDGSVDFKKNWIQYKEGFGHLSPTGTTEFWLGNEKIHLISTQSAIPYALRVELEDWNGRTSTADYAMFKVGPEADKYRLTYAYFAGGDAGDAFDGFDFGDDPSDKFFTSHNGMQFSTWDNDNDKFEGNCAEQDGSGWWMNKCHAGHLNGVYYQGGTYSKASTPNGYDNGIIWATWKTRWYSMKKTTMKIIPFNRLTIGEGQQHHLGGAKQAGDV

B1: recombinant zinc-dependent metalloprotease (fibrinolytic protease from metagenomic clone pES63H9) (protein)
chain: MEPEPIKTCTVLENPGYQPIHAPTDVSPQPVLAAMEAVPVPTPPPTVDAVMLFRKKWRDGKILRVHFMDGDPDVHRKVEEVAHTWSRHANVRFKFVDDPAADIRISFTQPGSWSYLGTDALRIARSQSTMNFGWLTPRSPDSEYNRVVIHEFGHALGLVHEHQNPDNGIPWNKPAVYEYYSGPPNNWSKEQVDTNLFQQYSEDQVRFTGFDRESIMLYPIPNEFTVGDFEVGWNRDLSADDKEFIGRMYPKPANELIVDDPPRASEISRYGEIDTYTFLVTQKGSYRIETDGRTDLVMLLYGPEDDTKLIAADDDSGRRLNPRITEELDWGKYTVRLQHFSQRQTGKYAVGVYRDDAAE
For B1, the “hydrolysis of the fibrin α-chain, SDS-PAGE time course at 37° C.” value was “the purified enzyme completely hydrolyzed the α-chain and the γ-γ-chain at 37 °C after 1 h”, the “hydrolysis of the fibrin β-chain, SDS-PAGE time course at 37° C.” value was “The enzyme also partially hydrolyzed the β-chain after 30 min; however, it was not completely hydrolyzed after 2 h and even after 24 h (data not shown)” and the “hydrolysis of the fibrin γ-γ-chain, SDS-PAGE time course at 37° C.” value was “the purified enzyme completely hydrolyzed the α-chain and the γ-γ-chain at 37 °C after 1 h”.

Source: patent US20090317890
